Test results reported in the supplement of paper PMC10567573.

B1: ZNF232 (parent)
chain: GKAYGWCSELIRHRRVHARKEPSH
B2: TRIM9 (parent)
chain: PRNSCITCPQCHRSLILDDRGLRG

Variants of: B1
Test: protein stability index of a GFP-peptide fusion (GPS, HEK-293T) (PSI 1-6); higher = more stable
Details: c terminus: a fixed tail appended
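Note: lentivirally expressed fusions sorted by FACS into six bins by GFP to DsRed ratio, PSI derived from sequencing read proportions per bin multiplied by bin number.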

Protein stability index of substitutions, site by site:
G1: M 2.55, I 2.72, N 3.14, Q 3.28, R 2.87, S 3.08, Y 2.37, T 3.35, P 3.44, L 2.85, V 2.45, F 2.79, H 2.75, A 2.89, E 3.39, W 1.97, C 2.73, D 3.43, K 2.75
G5: N 3.56, I 2.29, A 3.55, F 2.5, L 1.72, M 2.94, H 3.04, K 2.95, D 2.92, E 2.89, C 1.59
Y4: C 2.2, S 4.18, M 3.07, K 3.62, D 4.04, V 3.04, L 2.76, G 3.77, A 3.54, N 3.83, P 4.12, R 3.6, E 3.62, F 2.84, T 3.19, H 3.63, Q 3.75, I 3.06, W 2.62
K2: S 2.84, L 2.61, T 3.12, E 2.82, H 3.01, C 2.41, I 2.72, R 2.79, W 1.85, V 2.79, Q 3.26, F 2.62, N 2.62, P 3.44, A 3.3, G 3.54, D 3.2, M 2.55, Y 3.5
A3: G 3, M 2.77, V 2.97, Y 2.53, P 2.81, Q 2.95, R 2.92, K 3.1, E 3.04, L 2.29, C 2.89, H 2.69, D 3.39, S 3.46, F 2.73, N 3.12, W 2.48, I 2.35, T 3.02

Variants of: B2
Test: as above
Details: c terminus: a fixed tail appended

Protein stability index of substitutions, site by site:
P9: G 1.72, F 1.54, E 1, R 2.58, C 2.45, V 2.67, W 3.5, K 2.18, A 2.5, M 1.45, L 2.12
L17: Y 2.11, G 2.08, D 2.48, S 2.15, N 1.79, R 2.48, F 2.44, P 2.4, K 2.1, M 2.21, V 2.19, C 2.51, I 2.05
I6: H 2.46, L 2.26, N 2.29, G 1.93, Q 2.16, D 2.15, Y 2.72, T 1.89, P 2.6, F 1.66, E 2.02
C11: I 2.98, G 3.01, R 2.71, L 1.83, F 2.38, S 2.43, K 2.62, H 2.51, P 2.47
C8: F 1.57, N 2.6, T 3.33, W 2.89, V 2.47, L 2.35, E 3.18, Q 2.16, P 3.14, K 2.4
I16: H 1.97, Y 2.58, K 2.68, A 1.94, N 2.49, M 2.58, R 2.13, Q 2.69, S 2.97
R2: I 2.64, N 2.44, P 2.92, K 2.19, Q 2.52, V 1.92, F 1.89, W 2.14, C 1.74, A 1.58, H 2.29, E 2.71, T 2.56
T7: M 2.36, R 1.98, L 1.99, G 2.4, D 1.81, Y 2.33, E 1.99, W 2, N 2.04, S 2.48, F 1.84, I 2.16, C 2.05, H 3.11, A 2.42
L22: K 2.46, N 2.34, G 2.3, V 2.55, M 2.69, F 1.91, H 2.49
R13: I 1.95, Q 2.63, C 4.16, F 2.09, V 2.2, L 1.57, T 3.47, M 1.77, E 2.61
S4: E 2.2, V 2.27, T 1.73, D 2.29, N 1.8, A 2, G 1.76, I 2.52, W 1.71, L 2.37, Q 1.85, F 2.31
G21: M 2.8, I 1.47, F 1.88, W 2.06, L 2.09, K 2.52, A 1.93, D 2.07, S 1.71, P 2.27, H 2.11
N3: V 1.83, W 1.62, M 1.6, A 2.36, L 2.52, E 2.16, H 2.53
Q10: V 2.29, S 2.46, Y 3.29, C 1.95, D 2.49, I 2.05, F 3, K 2.25
D18: W 1.68, M 2.57, S 2.3, T 2.24, G 2.36, L 1.53, E 1.71, I 1.53, H 2.03, V 1.85, Q 1.96, N 1.7
D19: C 2.6, Y 1.7, S 2.11, W 1.52, G 1.58, P 1.81, H 1.9, L 1.41, N 1.93, K 2.05, Q 2.77
R23: Q 2.41, M 1.67, F 2.75, C 2.6, G 2.48, Y 1.63, S 2.1, T 3
S14: Q 2, W 1.68, R 2.4, M 2.27, L 2.11, Y 2.66, H 2.25, C 2.92, G 1.26
H12: G 2.68, S 2.04, N 2.16, D 2.28, I 1.85, C 1.6, W 2.07
R20: L 1.93, H 1.62, Y 2.35, G 2.19, M 2.21, A 1.98, D 2.53, Q 2.04, P 2.6
C5: A 1.67, I 2.34, F 2.08, T 2.02, P 2.49, H 1.77, N 1.99, E 2.67, S 2.42, G 2.75, D 2.11, V 2.8
G24: M 2.17, T 2.23, N 1.86, W 1.76, S 2.35, E 2.6, A 2.13, F 2.34, L 1.81, V 2.32, Y 1.84, R 1.22
L15: F 3.08, Q 2.79, P 2.77, R 2.13, I 1.68, C 1.95, G 1.64, A 1.92, Y 2.79, T 2.59, S 2.19
P1: W 1.94, R 2.28, I 2.33, L 2.29, Y 2.04, K 2.48, Q 1.83, E 3.1, S 2.61, M 1.76, T 1.97
